Assay [1] deals with transduced T cells (ef1a-TK-IRES-rtTA-TRE-hTERT) and non-transduced T cells. Description: Ganciclovir (TK suicide switch) cell growth test. It is filed as cell-based, human. As to conditions: in the presence of GCV. How it is done:
Experimental cells: CD8+CZY-1 SDS-T and NT cell; TK usage: Adult body concentration of 71.45 ng/ml/5000 ng/kg every 24 h injection. In vitro experimental concentration gradients: 357.2 ng/ml, 142.9 ng/ml, 71.45 ng/ml, 35.725 ng/ml, 14.28 ng/ml, 3.6 ng/ml. […] The starting cells were cultured in 200 w cell density of 50 w/ml.
In group three, transduced cells (ef1a-TK-IRES-rtTA-TRE-hTERT) were cultured using media containing Dox (2 μg/ml) and CD19 ECD (1 mg/250,000 CAR T cells). On day 90, various concentrations of GCV was added to the transduced cells. […] DTT cells represent transduced T cells and grew poorly in the presence of GCV.

Another assay deals with CAR T-TSHR cells. Put plainly: Culture of CAR T-TSHR cells with soluble TSHR ECD. It is filed as cell-based, human. An excerpt: Primary T cells were transduced with lentiviral vectors encoding a TSHR CAR to obtain modified T cells including CAR T cells expressing anti-TSHR (thereafter “CAR T-TSHR cells”). The modified T cells were frozen and stored for 30 days. Techniques related to freezing T cells and thawing frozen T cells may be found in Levine et al., Molecular Therapy—Methods & Clinical Development, Molecular Therapy, Vol 4, Mar. 17, 2017.
The modified Tcells were thawed and divided into two groups and cultured, respectively. CAR T-TSHR cells in Group 1 were cultured with anti-CD3 & CD28 beads and IL2 for 10 days, while CAR T-TSHR cells in Group 2 were cultured with various concentrations of soluble TSHR (e.g., extracellular domain of TSHR, SEQ ID: 34), anti-CD3 & CD28 beads and IL2. For Group 2, 500,000 CAR T-TSHR cells were cultured with 10, 125, 500 ng/ml of soluble TSHR ECD for 14 days. The T cell population was observed by flow cytometry (FIGS. 8 and 9), and cellular morphology of the T cell population was observed under microscopes (FIG. 10).

Assay [2] in a line: Survival and growth of various CAR T cells in vitro (FIG. 43). It is filed as cell-based, human. As to conditions: medium containing CD19 ECD vs no CD19 ECD. From the text: In Group 1 (hTert CD19 CAR), the primary T cells obtained from a healthy donor were transduced with a nucleic acid sequence encoding a CD19 CAR and a nucleic acid sequence encoding hTERT. In Group 2 (CD19 CAR), the primary T cells were transduced with the nucleic acid sequence encoding a CD19 CAR. […] CAR T cells are not comprising the nucleic acid sequence encoding hTERT begun to die after about 20 days after cells were transduced with the nucleic acid sequence encoding CAR.

The subject of another assay is CAR T19 cells. Put plainly: Culture of CAR T19 cells with or without soluble CD19 ECD. It is filed as cell-based, human. How it is done:
The primary T cells were transduced with lentiviral vectors encoding a CD19 CAR to obtain modified T cells including CAR T cells expressing anti-CD19 (thereafter “CAR T19 cells”) on day 1. The modified T cells were divided into two groups and cultured, respectively. CAR T19 cells in Group 1 were cultured with anti-CD3 & CD28 beads and IL2, while CAR T19 cells in Group 2 were cultured with soluble CD19 (e.g., extracellular domain (ECD) of CD19, SEQ ID: 41), anti-CD3 & CD28 beads and IL2. For Group 2, 500,000 CAR T19 cells were cultured with 2 micrograms of soluble CD19 at the starting point, and 4 micrograms of soluble CD19 were used after the CAR T19 cells were grown. The numbers of cells were measured, and ratios between CAR+ cells and the modified T cell population were observed by flow cytometry. The number of CAR copies in the cell population was measured.
T cell phenotypes were further observed. […] Memory cell marker CD62L on CAR+ and CAR-cells were analyzed to determine phenotypes of cultured T cell population.
CAR T19 cells were cultured with CD19 for over 15 days and then were divided into Group 3 and Group 4. CAR T19 cells in Group 3 were continuously cultured with soluble CD19, while CAR T19 cells in Group 4 were cultured without CD19.

In assay [3] the test system is anti-CD19 CAR proliferable T cells. Put plainly: Culture of anti-CD19 CAR proliferable T cells with CD19 ECD. As to conditions: CD19 ECD added to media (1 mg/250,000 CAR T cells). Format: cell-based, human. An excerpt: The primary T cells obtained from a healthy donor were transduced with lentiviral vectors encoding a CD19 CAR (SEQ ID NO: 21) and lentiviral vectors including sequence 1 or 6 as illustrated in FIG. 1 (ef1a-TK-IRES-rtTA-TRE-hTERT: SEQ ID NOs: 1, 2, 3, 4, 5, and 6 in the 5′ to 3′ order or ef1a-rtTA-TRE-hTERT: SEQ ID Nos: 1, 4, 5, and 6 in the 5′ to 3′ order) to obtain transduced T cells including immortalized T cells expressing anti-CD19 CAR (thereafter “anti-CD19 CAR proliferable T cells”) on day one. The anti-CD19 CAR proliferable T cells were divided into various groups and cultured in different media: in the presence of various concentrations of doxycycline (Dox), CD19 extracellular domain (ECD), and/or Ganciclovir (GCV)). In some groups, CD19 ECD (SEQ ID NO: 22) was added to media (1 mg/250,000 CAR T cells), and percentages of cells expressing CD19 CAR increased.

Another assay relates to K562-CD19. Description: IFN-gamma release of CAR T19 cells co-cultured with K562-CD19. It is filed as cell-based. As to conditions: after 24 hours; Group 2 (pre-cultured with CD19) vs Group 1; E:T 1:1 or 1:10. Here is the method:
CAR T19 cells of Group 1 and Group 2 were cultured for about one to three weeks using the protocols described above, respectively. CAR T19 cells were then washed and placed into cultures without CD19. These CAR T19 cells were co-cultured with K562-CD19 (E:T 1:1 or 1:10). After 24 hours, 48 hours, and 72 hours, supernatant of the cultures were collected, and IFN-gamma released by the cells were measured to determine functions of CAR T19 cells.

Another assay relates to CAR T cells. Put plainly: Long-term culture of CAR T cells (groups A-D) with CD19 antigen, flow cytometry. Format: cell-based, human. An excerpt: Various CARs (A, B, C, and D) were constructed by linking a signal peptide (SEQ ID NO: 38), antigen-specific single-chain variable fragment (scFv) (SEQ ID NO: 55 or 21), hinge domain (SEQ ID NOs: 68, 69, 70, or 71), a transmembrane domain (SEQ ID NO: 72, 73, 74, or 75), one or more co-stimulation domains (SEQ ID NO: 3), CD3-ζ (SEQ ID NO: 40), and EGFP, respectively (See FIGS. 12 and 13).
Primary T cells were obtained from the peripheral blood of volunteers. The magnetic beads negative selection was performed using Pan-T kit from Miltenyi Biotec, Inc. to collect T cells from the peripheral blood. On the second day after primary T cell isolation, the collected T cells were infected with lentivirus containing A, B, C, and D CARs, respectively (i.e., Lenti-CARs-IRES-EGFP) to prepare CAR T cells.
On the 14th day after infection, 15,000 CAR T cells of each group were collected, and cultured with 1000 ng/ml CD 19 antigen (i.e., recombinant human CD19 protein. After 15 days of stimulation, the concentration of CD19 was changed to 400 ng/ml. After 20 days of stimulation, the concentration of CD19 was changed to 200 ng/ml and maintained until about 130 days.
The expression of CARs and cell morphology were observed using flow cytometry on day-2, day 15 (FIGS. 14-17), day 17 (FIG. 20), day 65 and day 130 at the beginning of the stimulus. […]
In general terms: A flow cytometer gives signals particle by particle.

Regarding `Nc1nc(O)c2ncn(COC(CO)CO)c2n1` [GCV, Ganciclovir], in assay [1], the “growth of DTT cells (transduced T cells)” value is listed as “grew poorly” and the “growth of NT (non-transduced T cells)” value is reported as “continued to grow”.
Turning to “TSHR ECD: soluble TSHR, extracellular domain of TSHR, SEQ ID: 34”, the “ratio (P1) of CAR+ cells and the CAR T-TSHR cells” value in the assay on CAR T-TSHR cells (500 ng/ml soluble TSHR ECD) is on record as “significantly increased”. In addition, the cell debris entry in the assay on CAR T-TSHR cells (as the proportion of added antigen (TSHR-ECD) increased) is listed as “decreased”. In the assay with CAR T-TSHR cells (under 500 ng antigen stimulation), the “MFI value (CAR fluorescence)” value is recorded as “increased”. Besides, in the assay on CAR T-TSHR cells (with increasing concentrations of TSHR ECD (10, 125, 500 ng/ml)), the “SSC-A dispersible FSC low population” value is listed as “decreased”.

B1: CD19 ECD: soluble CD19, extracellular domain (ECD) of CD19, SEQ ID: 41 / SEQ ID NO: 22; recombinant human CD19 protein (protein)
chain: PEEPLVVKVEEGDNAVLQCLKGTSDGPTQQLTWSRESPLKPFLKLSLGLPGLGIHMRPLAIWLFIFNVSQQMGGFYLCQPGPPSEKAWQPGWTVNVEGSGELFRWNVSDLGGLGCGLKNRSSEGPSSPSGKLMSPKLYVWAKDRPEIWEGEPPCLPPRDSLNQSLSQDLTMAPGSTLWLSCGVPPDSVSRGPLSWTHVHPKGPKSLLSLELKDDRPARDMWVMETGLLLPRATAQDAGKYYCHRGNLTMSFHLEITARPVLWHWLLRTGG
On to B1, for which the “cell growth rates of hTERT CAR T cells” value in assay [2] was “higher cell growth rates”. The “cells showing the phenotype of memory cells (CD62L hi)” value in the assay on CAR T19 cells (CAR T19 cells of Group 2 (cultured with CD19), day 30) is “entire or majority cells”. For the same molecule, in the assay on CAR T19 cells (CD19 ECD added to media vs culturing without CD19 ECD, about day 3 to day 10, non-transduced T cells and CD19 CAR T cells), the “cell expansion during the early stage” value is given as “no apparent increases”. The “ratio of CAR T19 cells and T cells (flow cytometry)” value in the assay with CAR T19 cells (Group 2 (soluble CD19) vs Group 1) was “higher”. Moreover, the “copy numbers of CAR T19 cells (qPCR)” value with CAR T19 cells (Group 2 (soluble CD19) vs Group 1 (no CD19)) is reported as “higher”. For the same molecule, the “ratio of CAR T19 cells and T cells” value in the assay with CAR T19 cells (Group 2, day 30 after the starting point) is “continued to rise”. Besides, the “numbers of CAR+ cells” value with CAR T19 cells (Group 4 (CD19 removed after over 15 days) vs Group 3 (continued soluble CD19), Day 27) is “relatively lower”. Also, the “cell expansion rates of CD19 CAR T cells after the early stage” value in the assay with CAR T19 cells (vs cells cultured without the CD19 ECD, after about day 10) is recorded as “increased at a higher rate”. Also, the “percentages of cells expressing CD19 CAR” value in assay [3] is “increased”. In the assay with K562-CD19, the IFN-gamma released result is reported as “significantly higher”. The “percentage of CD4 cells” value in the assay on CAR T cells (CD19-stimulated cells vs parallel untreated) is reported as “increased”. Also, in the assay with CAR T cells (after CD19 stimulation), the “proportion of CAR+EGFP+ cells” value is listed as “increase”.

(Values after patent US11235004B2, “Lymphocyte cell lines and uses thereof” (Innovative Cellular Therapeutics Holdings, Ltd., priority 2017, dated 2022).)
